Test results as given in IntAct's records for PubMed 31515488.

B1: Elongin-A2 (Homo sapiens), Q8IYF1 (parent)
chain: MAAGSTTLHAVEKLQVRLATKTEPKKLEKYLQKLSALPMTADILAETGIRKTVKRLRKHQHVGDFARDLAARWKKLVLVDRNTRPGPQDPEESASRQRFGEALQDQEKAWGFPENATAPRSPSHSPEHRRTARRTPPGQQRPHPRSHSREPRAERKCPRIAPADSGRYRASPTRTAPLRMPEGPEPAAPGKQPGRGHTHAAQGGPLLCPGCQGQPQGKAVVSHSKGHKSSRQEKRPLCAQGDWHSPTLIREKSCGACLREETPRMPSWASARDRQPSDFKTDKEGGQAGSGQRVPALEEAPDSHQKRPQHSHSNKKRPSLDGRDPGNGTHGLSPEEKEQLSNDRETQEGKPPTAHLDRTSVSSLSEVEEVDMAEEFEQPTLSCEKYLTYDQLRKQKKKTGKSATTALGDKQRKANESKGTRESWDSAKKLPPVQESQSERLQAAGADSAGPKTVPSHVFSELWDLSEAWMQANYDPLSDSDSMTSQAKPEALSSPKFREEAAFPGRRVNAKMPVYSGSRPACQLQVPTLRQQCAQVLRNNPDALSDVGEVPYWVLEPVLEGWRPDQLYRRKKDNHALVRETDELRRNHCFQDFKEEKPQENKTWREQYLRLPDAPEQRLRVMTTNIRSARGNNPNGREAKMICFKSVAKTPYDTSRRQEKSAGDADPENGEIKPASKPAGSSHTPSSQSSSGGGRDSSSSILRWLPEKRANPCLSSSNEHAAPAAKTRKQAAKKVAPLMAKAIRDYKRRFSRR
partner: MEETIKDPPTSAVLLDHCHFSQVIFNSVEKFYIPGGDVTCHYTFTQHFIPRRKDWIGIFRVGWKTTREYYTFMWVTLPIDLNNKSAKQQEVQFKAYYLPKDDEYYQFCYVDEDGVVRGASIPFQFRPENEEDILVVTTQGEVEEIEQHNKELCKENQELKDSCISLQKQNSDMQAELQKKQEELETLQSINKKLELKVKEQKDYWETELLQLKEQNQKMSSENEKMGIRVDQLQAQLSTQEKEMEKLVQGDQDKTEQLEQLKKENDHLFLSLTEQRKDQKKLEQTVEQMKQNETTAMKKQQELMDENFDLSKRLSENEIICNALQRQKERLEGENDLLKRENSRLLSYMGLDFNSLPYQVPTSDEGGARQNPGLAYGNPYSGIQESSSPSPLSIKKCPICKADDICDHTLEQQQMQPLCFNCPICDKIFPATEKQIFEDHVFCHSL

Variants of: B1
Details: with caco2_human CALCOCO2, Q13137

Effect of a mutation on the interaction, with no effect:
D302H
R179P
R498Q
T6S
C254F

Effect of a mutation on the interaction, disrupting interaction strength:
G505R
